Substitutions are numbered along the chain they refer to. Where two headings read alike, the source gives them in different places.
B1: 330CHI (antibody, human IgG1, V domains shown)
VH: EVKLVESGGGLVQPGGSLKLSCAASGFGFSDYGMAWVRQAPRKGPEWVAFISNSAYSIYYADTVTGRFTISRENAKNTLYLEMSSLRSEDTAMYYCARLGRGNSFAYWGQGTLVTVSA
VL: DIVMTQSPSSLTVTAGEKVTMSCKSSQSLLNSGNQKNYLTWYQQKPGQPPKLLIYWGSTRESGVPDRFTGSGSGTDFTLTISSVQAEDLAVYYCQNELFYPLTFGAGTKLELK
notes: chimeric with the constant region of human IgG1; also called chimeric antibody 330CHI
B2: 3CHI (antibody, V domains shown)
VH: B1 VH with G28T, S54L, R101Y
VL: B1 VL with G57A, E97D, L98Y, F99S
notes: Human-murine chimeric antibody with the constant region of human IgG1; also called chimeric antibody of S5H3B6; original 3CHI antibody
B3: Hu330-1-5M (antibody, human IgG1, kappa)
heavy: EVQLVESGGGLVQPGGSLRLSCAASGFGFSDYGMAWVRQAPGKGLEWVSFISNSAYSIYYADTVTGRFTISRDNAKNSLYLQMNSLRAEDTAVYYCARLGRGNSFAYWGQGTLVTVSSASTKGPSVFPLAPSSKSTSGGTAALGCLVKDYFPEPVTVSWNSGALTSGVHTFPAVLQSSGLYSLSSVVTVPSSSLGTQTYICNVNHKPSNTKVDKKVEPKSCDKTHTCPPCPAPELLGGPSVFLLPPKPKDTLMISRTPEVTCVVVDVSHEDPEVKFNWYVDGVEVHNAKTKPPEEQYNSTLRVVSILTVLHQDWLNGKEYKCKVSNKALPAPIEKTISKAKGQPREPQVYTLPPSRDELTKNQVSLTCLVKGFYPSDIAVEWESNGQPENNYKTTPLVLDSDGSFFLYSKLTVDKSRWQQGNVFSCSVMHEALHNHYTQKSLSLSPGK
light: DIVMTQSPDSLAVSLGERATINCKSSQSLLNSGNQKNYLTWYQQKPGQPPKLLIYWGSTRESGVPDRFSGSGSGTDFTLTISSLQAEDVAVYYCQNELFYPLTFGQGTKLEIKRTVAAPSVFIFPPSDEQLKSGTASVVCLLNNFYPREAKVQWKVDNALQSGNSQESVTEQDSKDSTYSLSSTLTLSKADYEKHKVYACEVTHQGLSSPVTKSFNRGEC
notes: also called Fc mutant of the humanized antibody; Fc-mutated humanized antibody
B4: IMAB362-similar-hG1 (antibody, human IgG1, kappa)
heavy: not shown
light: DIVMTQSPSSLTVTAGEKVTMSCKSSQSLLNSGNQKNYLTWYQQKPGQPPKLLIYWASTRESGVPDRFTGSGSGTDFTLTISSVQAEDLAVYYCQNDYSYPFTFGSGTKLEIKRTVAAPSVFIFPPSDEQLKSGTASVVCLLNNFYPREAKVQWKVDNALQSGNSQESVTEQDSKDSTYSLSSTLTLSKADYEKHKVYACEVTHQGLSSPVTKSFNRGEC
notes: Human IgG1/kappa format; also called positive control antibody; positive antibody

Assays:
[1] = target: T1, human Claudin18.1 (CLDN18.1), full length, on cells (human, UniProt P56856 1-261); assay: FACS on CHO-K1-CLDN18.1 cells, PE-anti human Fc, MFI
T1 construct: HEK293-CLDN18.1 cells carry a fusion with green fluorescent protein (ZsGreen); CHO-K1-CLDN18.1 cells carry pcDNA3.1-CLDN18.1; The cell line is named under assay; also called CLDN18.1-FL; HEK293-CLDN18.1 cells
Protocol: (§1) CHO-K1-CLDN18.2 cells and CHO-K1-CLDN18.1 cells (prepared in Example 5) were digested with gastric cancer cell digestion solution at 37° C. for 15 minutes, respectively; terminated with complete culture medium, centrifuged at 1000 rpm for 5 minutes, the supernatant was discarded; the cells were resuspended with 2% fetal bovine serum-PBS diluent, the cells were adjusted to 1×10⁶ cells/ml, 100 μl of cell suspension was added to each well of the 96-well U-shaped-bottom plate; 2% fetal bovine serum-PBS was used to dilute the humanized antibody and the control antibody to final concentrations of 10 μg/ml, 2 μg/ml, 0.4 μg/ml, 0.08 μg/ml and 0.016 μg/ml, respectively, mixed well with the cells in equal volume, incubated at 4° C. for 1 hour; centrifuged at 1000 rpm for 5 minutes, the supernatant was discarded; 200 μl Cell Stain Buffer (Biolegend) was added to each well to wash twice, centrifuged at 1000 rpm for 5 minutes at each time and the supernatant was discarded; 100 μl of PE-anti human Fc antibody (Biolegend) was added, incubated at 4° C. for 1 hour; washed with Cell Stain Buffer (Biolegend) twice, centrifuged at 1000 rpm for 5 minutes at each time and the supernatant was discarded. 300 μl Cell Stain Buffer was added to resuspend the cells, and detected by BD FACS Jazz flow cytometry analyzer.

[2] = target: T2, human Claudin18.2 (CLDN18.2), full length, on cells (human); assay: cell-based or functional assay
[3] = target: T2, human Claudin18.2 (CLDN18.2), full …; assay: FACS on CHO-K1-CLDN18.2 cells, relative Kd from Graphpad fit
Protocol: as §1, with “analyzer. […]” for “analyzer.”

[4] = target: T2, human Claudin18.2 (CLDN18.2), full …; assay: FACS on CHO-K1-CLDN18.2 cells, Graphpad fit
Protocol: as §1, with “analyzer. […]” for “analyzer.”

[5] = target: T3, antigen protein Claudin18.2-His (human, UniProt P56856-2 1-261, limits assumed); assay: BLI (Fortebio Octet RED96), antibody on AHC sensor, CLDN18.2 protein in solution, 37 °C
T3 construct: also called CLDN18.2 protein
Protocol: Another method is to verify the affinity of the humanized antibody above at the protein level. The antibody was immobilized by the AHC sensor, and combined with different concentrations of antigens, and affinity determination was performed according to the manual of Octet RED96.

[6] = target: T2, human Claudin18.2 (CLDN18.2), full …; assay: FACS on NUGC4 cells
From the text: (§2) Human gastric cancer cells NUGC4 and stably transfected cells CHO-K1-CLDN18.1 (prepared in Example 5) were used respectively, to verify the specificity and affinity of the anti-CLDN18.2 antibodies above at the cellular level by FAGS technology. After antibody affinity maturation and screening in vitro, each antibody can bind to the CLDN18.2 target on NUGC4 cells, but not to CHO-K1-CLDN18.1 cells, as compared with the original 3CHI antibody.

[7] = target: T2, human Claudin18.2 (CLDN18.2), full …; assay: cell-based or functional assay; remark: listed apart in the source
[8] = target: T3, antigen protein Claudin18.2-His; assay: BLI (Fortebio Octet RED96), antibody on AHC sensor, Claudin18.2-His in solution, 37 °C
Protocol: Next, antibodies were immobilized by the AHC sensor, and then combined with different concentrations of antigens, and determination of the affinity was performed according to the manual of Octet RED96.

[9] = target: T1, human Claudin18.1 (CLDN18.1), full …; assay: FACS on CHO-K1-CLDN18.1 cells
From the text: as §2

[10] = target: T1, human Claudin18.1 (CLDN18.1), full …; assay: cellular ELISA on fixed HEK293-CLDN18.1 cells, HRP-anti human IgG, OD450
Protocol: (§3) HEK293-CLDN18.1 and HEK293-CLDN18.2 cells were resuscitated two weeks in advance, cultured with DMEM complete culture medium containing 10% fetal bovine serum at 37° C., 5% CO₂. When the cells grew to 80%-90% confluency, they were digested with 0.5 mM EDTA-PBS (Sigma) at room temperature, centrifuged at 1000 rpm for 5 minutes, the supernatant was discarded. Cells were resuspended in DMEM complete culture medium, the cell concentration was adjusted to 6×10⁵ cells/ml. Cells were plated on 96-well cell plates (Corning) pre-coated with polylysine at 2.5 μg/well, 100 μl per well, incubated at 37° C., 5% CO₂ for 24 hours, making cells evenly and completely plated on the bottom of the well. The supernatant was aspirated, and the cells were fixed with 4% paraformaldehyde at room temperature for 20 minutes, washed 3 times with 200 μl PBS, 2 minutes at each time. The well plates were blocked with 200 μl of 3% BSA-PBS at 37° C. for 1 hour. Each chimeric antibody was diluted with 3% BSA-PBS to a concentration of 6 μg/ml, and diluted in a 6-fold gradient to a total of 7 concentrations. At the same time, IMAB362-similar-hG1 diluted in the same concentration gradient as the positive control, and human IgG1, kappa isotype control antibody (hereinafter referred to as Isotype, provided by CrownBio (Taicang) Co., Ltd.) as the negative control were added to HEK293-CLDN18.2 and HEK293-CLDN18.1 cell plates, respectively. The cells were incubated at 37° C. for 1 hour, washed 5 times with PBS. Incubation with HRP-anti human IgG (Jackson) diluted 1:10000 in blocking solution was performed at 37° C. for 1 hour followed by washing 5 times with PBS. 100 μl of TMB one-component color developing solution was added, protected from light at room temperature for 5-10 minutes, terminated with 50 μl of 2M sulfuric acid, OD450 was read on the microplate reader. Data processing: the original data was put into GraphPad 5.0 software for plotting and calculation.

[11] = target: T2, human Claudin18.2 (CLDN18.2), full …; assay: cellular ELISA on fixed HEK293-CLDN18.2 cells
Protocol: as §3

[12] = target: T2, human Claudin18.2 (CLDN18.2), full …; assay: FACS on NUGC4 cells; remark: listed apart in the source
Protocol: (§4) The effect of the Fc-mutated humanized antibody on the binding to the target CLDN18.2 was identified by FACS. NUGC4 cells were digested using the gastric cancer cell digestion solution at 37° C. for 15 minutes; terminated by the complete culture medium, centrifuged at 1000 rpm for 5 minutes, the supernatant was discarded; the cells were resuspended with 2% fetal bovine serum-PBS diluent, the cells were adjusted to 1×10⁶ cells/ml, 100 μl of cell suspension was added to each well of the 96-well U-shaped-bottom plate; the antibody was diluted with 2% fetal bovine serum-PBS to final concentrations of 5 μg/ml, 1 μg/ml, 0.2 μg/ml, 0.04 μg/ml and 0.008 μg/ml, mixed with the cells in equal volume, incubated at 4° C. for 1 hour; centrifuged at 1000 rpm for 5 minutes, the supernatant was discarded; 200 μl of Cell Stain Buffer (Biolegend) was added to each well to wash twice, centrifuged at 1000 rpm for 5 minutes at each time and the supernatant was discarded; 100 μl of PE-anti human Fc antibody (Biolegend) was added, incubated at 4° C. for 1 hour; washed twice using Cell Stain Buffer (Biolegend), centrifuged at 1000 rpm for 5 minutes at each time and the supernatant was discarded. 300 μl of Cell Stain Buffer was added to resuspend the cells, detected with BD FACS Jazz flow analyzer.

[13] = target: T2, human Claudin18.2 (CLDN18.2), full …; assay: FACS on NUGC4 cells, positive rate
Protocol: as §4

[14] = target: T2, human Claudin18.2 (CLDN18.2), full …; assay: cell-based or functional assay; remark: listed apart in the source
[15] = target: T2, human Claudin18.2 (CLDN18.2), full …; assay: cell-based or functional assay; remark: listed apart in the source

| Binder | binding result [1] | ADCC activity by luciferase labeling, EC50 [2] [nM] | ADCC activity by luciferase labeling, Top [2] | Kd [3] [nM] | Bmax (MFI) [4] [MFI] | Kd [5] [nM] | koff [5] [s⁻¹] | kon [5] [M⁻¹ s⁻¹] | MFI (CLDN18.2) [6] [MFI] | in-vitro ADCC activity, Jurkat-CD16A/NF luciferase reporter, EC50 [7] [nM] | in-vitro ADCC activity, Jurkat-CD16A/NF luciferase reporter, Top [7] | Kd [8] [nM] | koff [8] [s⁻¹] | kon [8] [M⁻¹ s⁻¹] | MFI (CLDN18.1) [9] [MFI] | EC50 [11] [nM] | EC50 [13] [nM] | Top (%) [13] [%] | ADCC activity by luciferase labeling, EC50 [14] [nM] | ADCC activity by luciferase labeling, Top [14] | also measured |
| --- | --- | --- | --- | --- | --- | --- | --- | --- | --- | --- | --- | --- | --- | --- | --- | --- | --- | --- | --- | --- | --- |
| B1 | no binding | 0.18 | 64500 | 1.6 | 10800 | 0.249 | 3.23e-05 | 130000 | 63700 | 0.22 | 215000 | 0.84 | 0.000117 | 139000 | 49 |  |  |  |  |  |  |
| B2 |  |  |  |  |  |  |  |  | 2510 | 0.54 | 212000 |  |  |  | 76 | 0.08 |  |  |  |  | binding result [10]: no binding (tested: 6000 ng/ml) |
| B3 |  |  |  |  |  |  |  |  |  |  |  |  |  |  |  |  | 0.76 | 92.4 | 0.17 | 100000 | fold increase of binding activity over IMAB362-similar-hG1 [12]: 15 fold; ADCC cytotoxicity by LDH method, PBMC effectors, EC50 [15]: 0.31 nM |
| B4 | no binding | 0.69 | 63600 | 28.7 | 8220 | 9.44 | 0.00222 | 235000 | 2180 | 0.72 | 216000 | 7.14 | 0.000399 | 55900 | 59 | 0.09 | 9.78 | 58.8 | 1.49 | 89600 | ADCC cytotoxicity by LDH method, PBMC effectors, EC50 [15]: 2.47 nM |
